Data published in patent publication US20030049259A1.

Biological target: E-cadherin (human) (UniProt P12830)
Assay: cell-based or functional assay

UniProt P12830, sequence (P12830 155-882): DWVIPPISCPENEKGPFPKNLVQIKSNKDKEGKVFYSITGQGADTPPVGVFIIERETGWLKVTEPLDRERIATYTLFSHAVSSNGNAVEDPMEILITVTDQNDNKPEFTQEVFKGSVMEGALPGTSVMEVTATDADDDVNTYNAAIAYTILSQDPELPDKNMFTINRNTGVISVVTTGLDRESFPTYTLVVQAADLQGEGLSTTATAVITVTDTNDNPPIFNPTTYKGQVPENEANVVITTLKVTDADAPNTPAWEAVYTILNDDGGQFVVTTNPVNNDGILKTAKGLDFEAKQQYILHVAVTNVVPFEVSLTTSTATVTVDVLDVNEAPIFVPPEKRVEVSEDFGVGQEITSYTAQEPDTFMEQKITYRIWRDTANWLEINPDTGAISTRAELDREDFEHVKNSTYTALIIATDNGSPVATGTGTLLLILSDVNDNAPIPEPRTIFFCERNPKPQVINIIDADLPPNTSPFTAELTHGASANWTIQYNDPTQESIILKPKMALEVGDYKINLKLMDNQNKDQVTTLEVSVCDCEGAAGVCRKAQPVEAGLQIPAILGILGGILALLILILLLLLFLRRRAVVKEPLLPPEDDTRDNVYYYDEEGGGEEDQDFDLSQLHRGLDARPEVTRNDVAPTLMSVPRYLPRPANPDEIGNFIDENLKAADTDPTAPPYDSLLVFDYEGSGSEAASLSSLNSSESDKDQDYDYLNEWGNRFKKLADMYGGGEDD

blocking of ilEL binding to 16E6.A5 monolayers in 1 mM Ca2+, Mg2+ and Mn2+ (FIG. 3A): 55% | blocking of ilEL binding to 16E6.A5 monolayers in the absence of Ca2+ and Mn2+ (FIG. 3B): 0%
Substance: E4.6 (mouse anti-human E-cadherin, IgG1) (antibody)
